Consider eight molecules from paper PMC4755760, “The acidic domain of the endothelial membrane protein GPIHBP1 stabilizes lipoprotein lipase activity by preventing unfolding of its catalytic domain” (eLife, 2016).

Substitutions are numbered along the chain they refer to. Names may count otherwise.

Test [1] deals with Alexa-647–labeled GPIHBP1^34–131/R38G (human) (UniProt Q8IV16). The test can be described thus: MST; Monolith NT.115; 5 nM Alexa-647-labeled GPIHBP1, LPL2 titrated 10 pM to 350 nM; 10 mM HEPES (pH 7.4), 150 mM NaCl, 4 mM CaCl2, 0.05% P20, 1.0 mg/ml BSA; 22°C; 1:1 model.
In test [2] the target is bovine LPL homodimer (LPL2) (bovine) (UniProt P11151).
Test [3] has the same target. The test can be described thus: SPR; Biacore T200, CM4 chip; bovine LPL2 captured on immobilised mAb 5D2, GPIHBP1 as analyte (12.5-200 nM), single-cycle kinetic titration; 20°C; 10 mM HEPES (pH 7.4), 150 mM NaCl, 4 mM CaCl2, 0.05% P20, 0.2 mg/ml BSA; 1:1 model. A general note: SPR reads the build-up and loss of mass on a sensor chip optically.
For test [4], the target named is T1, bovine LPL homodimer (LPL2) (bovine, UniProt P11151 29-478).
T1 sequence (looked up): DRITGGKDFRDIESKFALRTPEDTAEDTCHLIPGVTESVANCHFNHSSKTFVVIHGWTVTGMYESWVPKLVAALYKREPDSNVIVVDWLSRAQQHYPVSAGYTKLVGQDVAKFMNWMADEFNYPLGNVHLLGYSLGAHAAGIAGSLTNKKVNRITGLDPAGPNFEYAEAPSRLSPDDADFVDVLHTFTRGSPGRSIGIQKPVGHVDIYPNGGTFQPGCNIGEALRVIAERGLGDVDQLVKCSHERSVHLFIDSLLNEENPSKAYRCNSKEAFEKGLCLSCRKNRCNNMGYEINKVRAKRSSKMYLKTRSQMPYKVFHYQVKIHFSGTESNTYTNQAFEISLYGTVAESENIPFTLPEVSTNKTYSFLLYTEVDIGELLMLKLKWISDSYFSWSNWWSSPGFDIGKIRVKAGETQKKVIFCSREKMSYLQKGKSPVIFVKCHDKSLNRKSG
The test is described as follows: cell-based or functional assay.

The target in test [5] is T1, bovine LPL homodimer (LPL2). The test can be described thus: SPR; Biacore T200, CM4 chip; bovine LPL2 captured on immobilised mAb 5D2, GPIHBP1 as analyte (12.5-200 nM), single-cycle kinetic titration; 20°C; 10 mM HEPES (pH 7.4), 150 mM NaCl, 4 mM CaCl2, 0.05% P20, 0.2 mg/ml BSA; 1:1 model. The following applies: both partners purified.
In another test the target is T2, CTD^313–448 of human LPL (human, UniProt P06858 340-475).
T2 construct: lipoprotein lipase (LPL), human, C-terminal domain, residues 313-448; numbers count on: the mature protein; the printed surface densities (85 RU ~ 5 fmols/mm^2) fit about 17 kDa, that is a CTD without the tag (surmise); also called LPL CTD; C-terminal domain of LPL; source: Drosophila S2 cells, secreted as RS-DIII-ent-CTD, purified (anti-uPAR mAb R24 column)
T2 sequence (looked up): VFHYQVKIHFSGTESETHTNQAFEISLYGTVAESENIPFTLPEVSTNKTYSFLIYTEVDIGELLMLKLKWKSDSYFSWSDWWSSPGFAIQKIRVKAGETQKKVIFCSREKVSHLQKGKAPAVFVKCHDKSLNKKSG
The test is described as follows: SPR; Biacore T200, CM4 chip; LPL CTD captured on immobilised mAb 5D2 (~100–200 RU), GPIHBP1 as analyte 8 nM to 4 µM; 20°C; 10 mM HEPES, 150 mM NaCl, 3 mM EDTA (pH 7.4), 0.05% P20; single- and multi-cycle kinetics, global fit to a 1:1 model. Particulars: both partners purified.

Test [6] deals with T1, bovine LPL homodimer (LPL2). The test is described as follows: MST; Monolith NT.115; 5 nM Alexa-647-labeled GPIHBP1, LPL2 titrated 10 pM to 350 nM; 10 mM HEPES (pH 7.4), 150 mM NaCl, 4 mM CaCl2, 0.05% P20, 1.0 mg/ml BSA; 22°C; 1:1 model. Particulars: both partners purified.

On to “bovine LPL homodimer (LPL2) (from UniProt P11151 29-478) (enzyme)”, for which, in test [1], the Kd (commonly the free concentration of one partner at which half of the binding sites on the other are occupied at equilibrium, for simple one-to-one binding) worked out at 147 nM.
In test [2], “GPIHBP1^34–131/R38G (from UniProt Q8IV16 54-151) (domain or fragment)” gave a Loss of esterase activity (%) of LPL after 45 min at 25°C; relative to LPL without ligand (100%) of 34.7%; a Loss of triolein hydrolase activity (%) of LPL after 45 min at 25°C; relative to LPL without ligand (100%) of 51.5%; an Unfolding of NTD in LPL (%) after 45 min at 25°C, by pulse-labeling HDX-MS, equimolar ligand; relative to LPL without ligand (100%) of 79.2%. In addition, in test [3], the Kd is 91 nM; the koff (commonly the first-order rate constant of dissociation) was 0.019 s⁻¹; the kon (as a rule, a measure of how fast the partners come together) was determined as 190000 M⁻¹ s⁻¹.
With GPIHBP1^1–33 (peptide), in test [2], the Loss of esterase activity (%) of LPL after 45 min at 25°C, peptide in 5-fold molar excess; relative to LPL without ligand (100%) turned out to be 9.8%; the Loss of triolein hydrolase activity (%) of LPL after 45 min at 25°C, peptide in 5-fold molar excess; relative to LPL without ligand (100%) was determined as 4.2%; the Unfolding of NTD in LPL (%) after 45 min at 25°C, by pulse-labeling HDX-MS, equimolar ligand; relative to LPL without ligand (100%) was 43%.

B1: GPIHBP1^1–131/R38G (domain or fragment, human, UniProt Q8IV16 21-151, looked up)
chain: QTQQEEEEEDEDHGPDDYDEEDEDEVEEEETNRLPGGGSRVLLRCYTCKSLPRDERCNLTQNCSHGQTCTTLIAHGNTESGLLTTHSTWCTDSCQPITKTVEGTQVTMTCCQSSLCNVPPWQSSRVQDPTG
notes: numbers count on: the mature protein; Monomeric by SEC; Carries a single N-linked glycan; also called soluble human GPIHBP1; not shown: uPAR domain III (DIII), N-terminal, cleaved
For the molecule B1, in test [4], the “Loss of esterase activity (%) of LPL after 45 min at 25°C; relative to LPL without ligand (100%)” value amounted to 11.4%; the “Loss of triolein hydrolase activity (%) of LPL after 45 min at 25°C; relative to LPL without ligand (100%)” value is 28.7%; the “Unfolding of NTD in LPL (%) after 45 min at 25°C, by pulse-labeling HDX-MS, equimolar ligand; relative to LPL without ligand (100%)” value was determined as 32.6%. Also, in test [5], the Kd was 25 ± 7 nM, the koff came to 0.023 ± 0.006 s⁻¹ and the kon came out at 990000 M⁻¹ s⁻¹. In the test with CTD^313–448 of human LPL, this molecule displayed a Kd of 120 ± 40 nM, a koff of 0.12 ± 0.04 s⁻¹ and a kon of 1.04e+06 M⁻¹ s⁻¹.

B2: GPIHBP1^1–131/R38G N-gly (domain or fragment, human, UniProt Q8IV16 21-151, looked up)
chain: B1 chain
modifications: the single N-linked glycan removed with N-glycanase
notes: numbers count on: the mature protein; As m1 after removal of the N-glycan; source: Drosophila S2 cells, purified, then incubated overnight at 37°C with N-glycanase under native conditions; not shown: uPAR domain III (DIII), N-terminal, cleaved
For the molecule B2, in the test with CTD^313–448 of human LPL, the affinity, expressed as Kd, was 150 nM; the koff worked out at 0.16 s⁻¹; the kon turned out to be 1.06e+06 M⁻¹ s⁻¹.

B3: Alexa-647–labeled GPIHBP1^1–131/R38G (domain or fragment, human, UniProt Q8IV16 21-151, looked up)
chain: B1 chain
modifications: Alexa Flour-647 (NHS ester), average 1.3 flurophore/protein; conditions favor modification of the N-terminal α-amino group
notes: numbers count on: the mature protein; m1 with a fluorophore; source: Drosophila S2 cells, purified, labeled with Alexa Flour-647 NHS ester, desalted (PD-10); not shown: uPAR domain III (DIII), N-terminal, cleaved
B3 registered a Kd in test [6] of 5.7 nM.

B4: GPIHBP1^1–131 (domain or fragment, human, UniProt Q8IV16 21-151, looked up)
chain: B1 chain with G38R
notes: numbers count on: the mature protein; not shown: uPAR domain III (DIII), N-terminal, cleaved
In test [5], B4 had a Kd of 38 ± 29 nM, a koff of 0.02 ± 0.007 s⁻¹ and a kon of 650000 M⁻¹ s⁻¹. In the test with CTD^313–448 of human LPL, this molecule had an equilibrium dissociation constant (Kd) of 290 ± 130 nM, a koff of 0.22 ± 0.07 s⁻¹ and a kon of 1.12e+06 M⁻¹ s⁻¹.

B5: GPIHBP1^34–131/R38G (domain or fragment, human, UniProt Q8IV16 54-151, looked up)
chain: LPGGGSRVLLRCYTCKSLPRDERCNLTQNCSHGQTCTTLIAHGNTESGLLTTHSTWCTDSCQPITKTVEGTQVTMTCCQSSLCNVPPWQSSRVQDPTG
notes: numbers count on: the mature protein; Monomeric by SEC; also called truncated GPIHBP1 lacking the acidic domain; isolated LU domain; source: Drosophila S2 cells; not shown: uPAR domain III (DIII), N-terminal, cleaved
In the case of B5, in the test with CTD^313–448 of human LPL, the Kd worked out at 1410 ± 760 nM, the koff is 0.1 ± 0.01 s⁻¹ and the kon amounted to 100000 M⁻¹ s⁻¹.
